Measured values: publication PMC7308587

Experiments:
[1] = target: PpPIIa, recombinant mature protein (without the chloroplast transit peptide) (Pinus pinaster (maritime pine)); assay: SEC; ENrich SEC 650 10 x 300 column (FPLC), 250 uL of protein at 0.6 ug/uL in 25 mM Tris-HCl pH 7.5, 150 mM NaCl, 10% glycerol, room temperature, 0.75 mL/min; calibrated with protein standards; fractions checked by western blot
[2] = target: PpNAGK, recombinant mature N-acetylglutamate kinase (301 residues without cTP) fused to a His-tag (Pinus pinaster (maritime pine))
[3] = target: PpPIIb, recombinant mature protein (without the chloroplast transit peptide) (Pinus pinaster (maritime pine)); assay: SEC; ENrich SEC 650 10 x 300 column (FPLC), 250 uL of protein at 0.6 ug/uL in 25 mM Tris-HCl pH 7.5, 150 mM NaCl, 10% glycerol, room temperature, 0.75 mL/min; calibrated with protein standards; fractions checked by western blot

| stoichiometry N [1] | PpNAGK enzyme activity (N-acetylglutamylhydroxamate assay) with increasing amounts of PpPIIa mixed with 0.65 ug PpNAGK [2] | stoichiometry N [3] | PpNAGK enzyme activity (N-acetylglutamylhydroxamate assay) with increasing amounts of PpPIIb mixed with 0.65 ug PpNAGK [2] | Substance |
| --- | --- | --- | --- | --- |
| 3 | 5 fold |  |  | PpPIIa, recombinant mature protein (without the chloroplast transit peptide) (natural protein) |
|  |  | 3 | 5 fold | PpPIIb, recombinant mature protein (without the chloroplast transit peptide) (natural protein) |
